From patent publication US20120093719A1 (PROSCAN RX PHARMA, published 2012)
Blank lines part the entries; values can stand above or below the binder they belong to.

Legend:
[1] = target: T1, prostate specific membrane antigen (PSMA) (human, UniProt Q04609 1-750); assay: ELISA, serially diluted antibody on membrane preparation of PSMA-expressing LNCaP cells against PSMA-negative PC-3
T1 construct: whole, on cells; In the assays PSMA stood as endogenous protein in LNCaP cell membrane preparations (ELISA) or LNCaP lysate (western blot); The background says PSMA forms a noncovalent homodimer
Protocol: FIG. 4: immunoreactivity mAb1 to cancer cell line. Serially diluted purified antibody was tested by ELISA on a cell membrane preparation that express PSMA (LNCaP) or not (PC-3). The antibody reacts strongly with the LNCaP preparation while the PC-3 remains unreactive;
Immunoreactivity of mAb1_against cancer cell line was tested by ELISA. Serially diluted purified antibody was tested on a cell membrane preparation that express PSMA (LNCaP) or not (PC-3).

[2] = target: T1, prostate specific membrane antigen …; assay: ELISA after 5 days at 37 C in 0.1M glycine buffered with Tris to pH 7.4
[3] = target: T1, prostate specific membrane antigen …; assay: ELISA on LNCaP or PC-3 membrane preparation
Protocol: An ELISA assay was used to test the reactivity and specificity of purified chimeric anti-PSMA antibodies. Briefly, 96-well plates (Immulon 2HB) were coated overnight at 4° C. or for 2 h at 37° C. with 100 uL of PBS containing 5 ug of cell membrane preparation. Plates were washed four times with 200 uL of 10 mM Tris-HCl, 150 mM NaCl, and 0.1% Tween-20 (TBST, pH 7.5), and blocked for 1 h with 200 uL of TBST containing 5% FBS. Plates were then washed and incubated for 1 h at room temperature using 100 uL of serially diluted purified chimeric anti-PSMA antibodies in TBST containing 5% FBS. Antibody binding was detected by the sequential addition, followed by washing, of 100 uL of horseradish peroxidase (HRP) conjugated goat anti-human IgG whole molecule (Jackson Immunoresearch) diluted 1:5000 in TBST containing 5% FBS, for 1 h at room temperature, and 100 uL of HRP colorimetric substrate solution 3,3′,5,5′-tetramethylbenzidine (BioFX Laboratories). The reaction was stopped with the addition of 100 uL of 0.5 M sulphuric acid and the absorbance was read at 450 nm in a microplate reader (Bio-Tek Instruments).
The reactivity of the DOTA conjugated antibody (chAb1-DOTA) was compared to the unconjugated antibody (chAb1) by ELISA on a cell membrane preparation that express PSMA (LNCaP) or not (PC-3) (FIG. 14).

T1 sequence (Q04609 whole entry): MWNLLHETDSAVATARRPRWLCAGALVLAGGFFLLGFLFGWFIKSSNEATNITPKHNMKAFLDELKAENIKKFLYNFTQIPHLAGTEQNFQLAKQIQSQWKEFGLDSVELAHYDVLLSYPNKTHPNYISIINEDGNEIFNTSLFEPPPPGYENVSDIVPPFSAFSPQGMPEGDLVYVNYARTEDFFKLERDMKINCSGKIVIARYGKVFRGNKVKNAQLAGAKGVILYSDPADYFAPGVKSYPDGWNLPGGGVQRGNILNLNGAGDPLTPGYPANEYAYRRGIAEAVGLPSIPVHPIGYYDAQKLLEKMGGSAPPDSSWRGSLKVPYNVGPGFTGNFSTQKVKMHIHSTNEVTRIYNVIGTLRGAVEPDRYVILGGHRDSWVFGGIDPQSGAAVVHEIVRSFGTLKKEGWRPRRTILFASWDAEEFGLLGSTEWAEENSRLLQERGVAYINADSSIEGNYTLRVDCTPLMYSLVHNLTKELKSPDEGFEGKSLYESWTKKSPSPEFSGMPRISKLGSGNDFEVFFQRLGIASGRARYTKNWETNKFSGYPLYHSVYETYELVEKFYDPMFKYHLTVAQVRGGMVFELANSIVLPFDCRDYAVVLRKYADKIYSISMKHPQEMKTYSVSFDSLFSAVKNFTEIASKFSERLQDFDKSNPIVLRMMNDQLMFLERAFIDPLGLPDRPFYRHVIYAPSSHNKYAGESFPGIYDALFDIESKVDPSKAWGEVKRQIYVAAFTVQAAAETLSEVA

binding result [1]: binds
B1: murine monoclonal anti-PSMA antibody mAb1 (antibody, V domains shown)
VH: EVQLQQSGAELVKPGASVKLSCTASGFNIKDTYMHWVKQRPEQGLEWIGGIDPADGETKYDPKFQDKATITTDTSSNTVYLQISSLTSEDTAVYYCVRSFDYWGQGTTLTVSS
VL: DVVMTQTPLSLPVSLGDQASISCRSSQSLVHSNGNTYLHWYLQKPGQSPKFLIYKASNRFSGVPDRFSGRGSGTDFTLKISRVEAEDLGVYFCFQSTHVPYTFGGGTKLEIKR
notes: also called murine anti-PSMA antibody; murine parental antibody

binding result [2]: binds
B2: murine/human chimeric anti-PSMA antibody chAb1 (antibody, human IgG1, kappa, V domains shown)
VH: EVQLQQSGAELVKPGASVKLSCTASGFNIKDTYMHWVKQRPEQGLEWIGGIDPADGETKYDPKFQDKATITTDTSSNTVYLQISSLTSEDTAVYYCVRSFDYWGQGTTLTVSS
VL: DVVMTQTPLSLPVSLGDQASISCRSSQSLVHSNGNTYLHWYLQKPGQSPKFLIYKASNRFSGVPDRFSGRGSGTDFTLKISRVEAEDLGVYFCFQSTHVPYTFGGGTKLEIKR
notes: also called chimeric antibody

binding result [3]: binds
B3: DOTA-conjugated chimeric anti-PSMA antibody chAb1-DOTA (antibody, V domains shown)
VH: EVQLQQSGAELVKPGASVKLSCTASGFNIKDTYMHWVKQRPEQGLEWIGGIDPADGETKYDPKFQDKATITTDTSSNTVYLQISSLTSEDTAVYYCVRSFDYWGQGTTLTVSS
VL: DVVMTQTPLSLPVSLGDQASISCRSSQSLVHSNGNTYLHWYLQKPGQSPKFLIYKASNRFSGVPDRFSGRGSGTDFTLKISRVEAEDLGVYFCFQSTHVPYTFGGGTKLEIKR
modifications: DOTA conjugated through DOTA-NHS ester; sites and chain not stated
notes: also called DOTA conjugated antibody
